Experimental data reported in patent US20230295310A1 (ABCELLERA BIOLOGICS, published 2023).
Numbering of substitutions follows the chain as printed. Blank lines part the entries; values can stand above or below the binder they belong to.

Columns and labels:
[1] = molecular target: T1, human CD3e/g (human, UniProt P07766 23-126; P09693 23-116); test: SPR (Carterra LSA), mAb on chip
T1 construct: Bought soluble protein; also called hCD3e/g; human CD3e/g (Acro CDD-C52W4)
Summary of the method: (§1)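 Purified mAbs amine-coupled (EDC/S-NHS) at 10 μg/mL in 10 mM NaOAc pH 4.25 onto an HC-30M chip, with benchmark and negative-control mAbs; analyte flowed over the array. Double-referenced sensorgrams fitted globally to a 1:1 Langmuir model for ka, kd and KD.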

[2] = molecular target: T2, human CD3e/d (human, UniProt P07766 23-126; P04234 22-105); test: SPR (Carterra LSA), mAb on chip
T2 construct: Bought soluble protein; also called hCD3e/d; human CD3/ed (Sino CT038-H2508H)
Summary of the method: as §1

T1 sequence (P07766 23-126, chain 1 of 2): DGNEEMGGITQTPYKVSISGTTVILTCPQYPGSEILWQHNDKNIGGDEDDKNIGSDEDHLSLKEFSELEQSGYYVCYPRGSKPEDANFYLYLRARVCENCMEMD
T1 sequence (P09693 23-116, chain 2 of 2): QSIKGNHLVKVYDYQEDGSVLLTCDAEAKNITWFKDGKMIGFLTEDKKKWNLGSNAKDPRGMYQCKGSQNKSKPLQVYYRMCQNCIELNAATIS
T2 sequence (P07766 23-126, chain 1 of 2): as the sequence (P07766 23-126, chain 1 of 2) above
T2 sequence (P04234 22-105, chain 2 of 2): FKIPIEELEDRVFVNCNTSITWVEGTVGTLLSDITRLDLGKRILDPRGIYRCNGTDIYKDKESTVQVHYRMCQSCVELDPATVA

Kd [1]: 0.046 µM
Kd [2]: 0.075 µM
B1: mAb 273 (antibody, V domains shown)
VH: EVQLVESGGGLVQPGESLKLSCTASGFTFSVSAIHWVRQASGKGLEWVGRIRSKANSYATAYVASVKGRFTLSRDDSKNTAYLQMNSLKTEDTAVYYCSSYYFVSGTYYNHWGQGTLVTVSS
VL: DIQMTQSPSSLSASVGDRVTITCRASQGIRYDLGWYQQKPGRAPKRLIHSVSSLQSGVPSRFSGSGSGTEFTLTISSLQPEDFATYYCLQHNVNPCTFGQGTKLEIK
notes: VH and VL only

Kd [1]: 0.102 µM
Kd [2]: 0.117 µM
B2: mAb 85 (antibody, V domains shown)
VH: QVQLVQSGAEVKKPGASVKVSCKASGYTVTGYYMHWVRQAPGQGLEWMGWINPNSGGTNFAQNFQGRVTMTRDTSISTFYMDLNRLRSDDTAVYYCARGGAPVSYWFFDLWGRGTLVTVSS
VL: DIQMTQSPSSLSASVGDRVTITCRASQSISRYLNWYQQKPGKAPKVLIYNTSSLKSGVPSRFSGSGSGTDFTLTISSLQPEDFGTFYCQQSHSTPFTFGPGTKVDIK
notes: VH and VL only

Kd [1]: 0.125 µM
Kd [2]: 0.149 µM
B3: mAb 66 (antibody, V domains shown)
VH: B2 VH with N84S
VL: B2 VL with G84A, F86L
notes: VH and VL only

Kd [1]: 0.0748 µM
Kd [2]: 0.124 µM
B4: mAb 79 (antibody, V domains shown)
VH: B2 VH with T28I, Q43H, R87T
VL: B2 VL with S28N, S30N, R31S, Q37H, S53T, D70Y, G84A
notes: VH and VL only

Kd [1]: 0.0086 µM
Kd [2]: 0.013 µM
B5: mAb 213 (antibody, V domains shown)
VH: QEQLVESGGGVVQPGGSLRLSCAASGFTFSGYGMHWVRQAPGKGLEWVAIIWYNGRKTYYAESVKGRFTISRDNSKNTLSLQMNSLRVEDTAVYYCTTGKGYNWFDPWGQGTLVTVSS
VL: EIVMTQSPATLSVSPGERATLSCRASQSVSSNLAWYQQKPGQAPRLLIYGASTRATGIPARFSGSGSGTEFTLTISSLQSEDFAVYYCQQFNAWPLTFGGGTKMEIK
notes: VH and VL only

Kd [1]: 0.0062 µM
Kd [2]: 0.011 µM
B6: mAb 225 (antibody, V domains shown)
VH: B5 VH with T28K, S85R, T98A, K100Q
VL: B5 VL
notes: VH and VL only

Kd [1]: 0.0063 µM
Kd [2]: 0.01 µM
B7: mAb 219 (antibody, V domains shown)
VH: B5 VH with T28M, A61T, T98A, K100Q
VL: B5 VL
notes: VH and VL only

Kd [1]: 0.011 µM
Kd [2]: 0.016 µM
B8: mAb 220 (antibody, V domains shown)
VH: B5 VH with A23V
VL: B5 VL
notes: VH and VL only

Kd [1]: 0.0096 µM
Kd [2]: 0.015 µM
B9: mAb 276 (antibody, V domains shown)
VH: EVQLVESGGGLVQPGGSLRLSCAASGIPFSTYSMNWVRQAPGKGLEWVSYISGSSRTIYYADSVKGRFTISRDNAKKLLFLQMNSLRDEDTAVYYCAREGDYYDSSGWAYWGQGTLVTVSS
VL: DIQMTQSPSSLSASVGDRVTITCRASQNIYKYLNWYEQKPGRAPKLLIYTTSNLQSGVPSRFSGSGSGTAFTLIISSLQPEDFATYYCQQSYGSPYTFGQGTKLEIK
notes: VH and VL only

Kd [1]: 0.0999 µM
Kd [2]: 0.0467 µM
B10: mAb 68 (antibody, V domains shown)
VH: EVQLVDSGGGLVQPGGSLRLSCSGSGFTFSSYWMSWVRQAPGKGLEWVANIKQDGSQKYYVDSVKGRFTISRDNVKNSLYLQMNSLRVEDTAVYYCARDESSSWYWYFDLWGRGTLVTVSS
VL: DIQMTQSPSTLSASVGDRVTLTCRASQNIVKWLAWYQQKPGKAPKLLIYKASSLESGVPSWFSGSGSGTEFTLTINSLQPDDFATYYCQQYYTYSRTFGQGTKVEIK
notes: VH and VL only

Kd [1]: 0.394 µM
Kd [2]: 0.606 µM
B11: mAb 72 (antibody, V domains shown)
VH: B10 VH with S23A, G24A, Q57E, Y80S, Q82E, V88A, V93L
VL: B10 VL with L21I, N28S, V30S, S56N, W61R, N76S, Y92S, T93S
notes: VH and VL only

Kd [1]: 0.02 µM
Kd [2]: 0.16 µM
B12: mAb 283 (antibody, V domains shown)
VH: QVHLVQSGAEVKKPGASVRVSCKASGYTFTGYYIHWLRQAPGQGLEWLGWINPNSGGTNYSQKFRGRVTMTRDTSISTAYMELSRLRSDDTAVYYCARDKVWEQQLVGGFDYWGQGTLVTVSS
VL: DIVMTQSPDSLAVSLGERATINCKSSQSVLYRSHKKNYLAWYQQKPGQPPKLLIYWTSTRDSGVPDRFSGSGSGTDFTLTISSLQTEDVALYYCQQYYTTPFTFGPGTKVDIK
notes: VH and VL only

Kd [1]: 0.0919 µM
Kd [2]: 0.0821 µM
B13: mAb 86 (antibody, V domains shown)
VH: QVQLAESGGGVVQPGRSLRLSCEASGFTFSGYGMHWVRQAPGKGLDWVAIIYYDGKNKYYADSVKGRFTISRDNSKNTLYLQMNSLRAEDTAVYYCARGGGYNWFDPWGQGTLVTVSS
VL: DIQMTQSPSSLSASVGDRVTITCRPSQTISKYLNWYQQKPGKAPKLLIYAASSLQSGVPSRFSGSGSGTDFTLTISSLQPEDFATYYCQQSYITPITFGRGTRLEIK
notes: VH and VL only

Kd [1]: 0.047 µM
Kd [2]: 0.022 µM
B14: mAb 229 (antibody, V domains shown)
VH: B13 VH with V2E, A5V, E23A, G31S, D46E, D54N, N57K, Y59D, G100L
VL: EIVLTQSPDFQSVTPKEKVTITCRASQSIGSSLHWYQQKPDQSPKLLIKYASQSFSGVPSRFSGSGSGTDFTLTINSLEAEDAATYYCHQSSSLPYTFGQGTKLEIK
notes: VH and VL only

Kd [1]: 0.022 µM
Kd [2]: 0.011 µM
B15: mAb 212 (antibody, V domains shown)
VH: EVQLLESGGGLVQPGGSLRLSCAASGFTFSNYAMNWVRQAPGKGLEWVSAISGSRSNTYYADSVKGRFTISRDNSKNTLYLQMNSLRAEDTGVYYCAKGAYSKYPYYYYMDVWGKGTTVTVSS
VL: EIVMTQSPATLSLSPGERATLSCRASQSVSSSYLSWYQQKPGQAPRLLIYGASTRAIGIPARFSGSGSGTDFTLTISSLQAEDFAVYYCQQDDNLPWTFGQGTKVEIK
notes: VH and VL only

Kd [1]: 0.025 µM
Kd [2]: 0.013 µM
B16: mAb 214 (antibody, V domains shown)
VH: B15 VH with G92A
VL: B15 VL
notes: VH and VL only

Kd [1]: 0.0056 µM
Kd [2]: 0.025 µM
B17: mAb 237 (antibody, V domains shown)
VH: EVQLLESGGDLVQPGGSLRLTCAASGFTFRSYAMNWVRQAPGKGLEWVSTISSRGDTTNYADSVKGRFTISRDTSKNTLYLQMDNLRADDTAVYYCSKMFSYYYYYMDVWGKGTTVTVSS
VL: SYELTQPLSVSVALGQTARITCGGNNIGSKDVHWYQQKPGQAPVLVIYRDSNRPSGIPERFSGSNSGNTATLTISRAQAGDEADYYCQVWDSRTAVFGGGTQLTAL
notes: VH and VL only

Kd [1]: 0.0041 µM
Kd [2]: 0.009 µM
B18: mAb 263 (antibody, V domains shown)
VH: EVQLLESGGGLVQPGGSLRLSCTPSGITFNNYAMTWVRQAPGKGLEWVSGISVSGGSTYYADSVMGRFTISRDSSKTLYLQMNSLRAEDTAVYYCAKFHSHYYYYMDVWGKGTTVTVSS
VL: B17 VL with S92R
notes: VH and VL only

Kd [1]: 0.0074 µM
Kd [2]: 0.032 µM
B19: mAb 264 (antibody, V domains shown)
VH: EVQLLESGGGLVQPGGSLRLSCVASGFTFRSSSMTWVRQAPGKGLEWVSGIRGSGGRTYDAESVKGRFTISRDNSKNTLYLQMNSLRAEDTAEYYCAKLYDYYNDYMDVWGKGTTVTVSS
VL: B17 VL with D31N, R93S
notes: VH and VL only

Kd [1]: 0.0081 µM
Kd [2]: 0.024 µM
B20: mAb 251 (antibody, V domains shown)
VH: EVQILESGGGLVQPGGSLRLSCVASGFTFRSYVMSWVRRAPGRGLEWVSGISASGGNTYYADSVKGRFTISRDNSKNTLFLQMNGLRAEDTAVYYCAKLFSYYYYFMDVWGKGTTVTVSS
VL: B17 VL with R76G, S92R
notes: VH and VL only

Kd [1]: 0.003 µM
Kd [2]: 0.016 µM
B21: mAb 261 (antibody, V domains shown)
VH: EVQLLESGGGFMQPGGSLRLSCAVSGFTFRTSSMAWVRQAPGKGLEWVSGIRGSGGRTYDAESVKGRFTISRDISKNTLYLQMNNLRAEDTAEYYCAKLYDYYNDFMDVWGKGTTVIVSA
VL: B17 VL with D31N, R93S
notes: VH and VL only

Kd [1]: 0.01 µM
Kd [2]: 0.026 µM
B22: mAb 262 (antibody, V domains shown)
VH: B19 VH with Q3R, V23A, T35A, A40D, S49T, E62D
VL: B17 VL with D31N, R93S
notes: VH and VL only

Kd [1]: 0.017 µM
Kd [2]: 0.059 µM
B23: mAb 238 (antibody, V domains shown)
VH: B17 VH
VL: B17 VL with R93S
notes: VH and VL only

Kd [1]: 0.0042 µM
Kd [2]: 0.028 µM
B24: mAb 260 (antibody, V domains shown)
VH: B19 VH with T35A, T69I, N74T, A88G, Y95F
VL: B17 VL with D31N, R93S
notes: VH and VL only

Kd [1]: 0.013 µM
Kd [2]: 0.03 µM
B25: mAb 252 (antibody, V domains shown)
VH: B20 VH with A53T
VL: B17 VL with R76G, S92R
notes: VH and VL only

Kd [1]: 0.013 µM
Kd [2]: 0.063 µM
B26: mAb 259 (antibody, V domains shown)
VH: B19 VH with Q3L, V23A, N74I, L86V
VL: B17 VL with D31N, R93S
notes: VH and VL only
